{"source": "paper PMC12082725", "target": "SARS-CoV-2 nucleocapsid protein (NP), full length (SARS-CoV-2, UniProt P0DTC9 1-419)", "assay": "BLI", "data": [{"binder": "UCUAAACGAAC (ssRNA)", "note": "[11-mer 5' TRS-derived RNA]", "values": [{"measurement": "Kd", "value": "3.83 ± 0.04", "unit": "nM"}]}]}
